Results published in US20210380680A1 (ZLLP, published 2021).
Where two headings read alike, the source gives them in different places.

B1: 364D1A7-H1L1 (antibody, V domains shown)
VH: EVQLVESGGGLVQPGGSLRLSCAASGFTFSSFGMHWVRQAPGKGLEWVSYISSGSGSIYYADTVKGRFTISRDNAKNSLYLQMNSLRAEDTAVYYCATSYYYGNALEYWGQGTTVTVSS
VL: DIVMTQSPDSLAVSLGERATINCKSSQSLFNVGNQKNYLTWYQQKPGQPPKLLIYWASTRKSGVPDRFSGSGSGTDFTLTISSLQAEDVAVYYCQNVYSYPLTFGGGTKVEIK
notes: humanized IgG; constant regions not specified
B2: 364D1A7-H3L1 (antibody, V domains shown)
VH: EVQLVESGGGLVQPGGSLRLSCAASGFTFSSFGMHWVRQAPGKGLEWVAYISSGSGSIYYADTVKGRFTLSRDNPKNSLYLQMNSLRAEDTAVYYCATSYYYGNALEYWGQGTTVTVSS
VL: DIVMTQSPDSLAVSLGERATINCKSSQSLFNVGNQKNYLTWYQQKPGQPPKLLIYWASTRKSGVPDRFSGSGSGTDFTLTISSLQAEDVAVYYCQNVYSYPLTFGGGTKVEIK
notes: as for B1
B3: hz282-10 (antibody, V domains shown)
VH: QVQLQESGPGLVKPSETLSLTCTVSGFSLTSYNVYWIRQPPGKGLEWIGVIWNTGATRYNSALKSRVTISKDTSKNQVSLKLSSVTAADTAVYYCARDSAMPAIPFAYWGQGTLVTVSS
VL: DIQMTQSPSSLSASVGDRVTITCKSSQSLFGSVRQKNYLAWYQQKPGKAPKLLIYLASTRESGVPSRFSGSGSGTDFTLTISSLQPEDFATYYCQQYYDIPWTFGGGTKVEIK
notes: as for B1
B4: hz282-20 (antibody, V domains shown)
VH: QVQLQESGPGLVKPSETLSLTCTVAGFSLTSYNVYWIRQPPGKGLEWIGVIWNTGATRYNSALKSRVTISKDTSKSQVSLKLSSVTAADTAVYYCARDSAMPAIPFAYWGQGTLVTVSS
VL: DIVMTQSPSSLSASVGDRVTINCKSSQSLFGSVRQKNYLAWYQQKPGKSPKLLIYLASTRESGVPDRFSGSGSGTDFTLTISSLQPEDFAKYYCQQYYDIPWTFGGGTKVEIK
notes: as for B1
B5: hz282-11 (antibody, V domains shown)
VH: QVQLQESGPGLVKPSETLSLTCTVSGFSLTSYNVYWIRQPPGKGLEWIGVIWNTGATRYNSALKSRVTISKDTSKSQVSLKLSSVTAADTAVYYCARDSAMPAIPFAYWGQGTLVTVSS
VL: DIQMTQSPSSLSASVGDRVTITCKSSQSLFGSVRQKNYLAWYQQKPGKAPKLLIYLASTRESGVPSRFSGSGSGTDFTLTISSLQPEDFATYYCQQYYDIPWTFGGGTKVEIK
notes: humanized IgG; constant regions not specified; also called humanized 282A12(T62A) (hz282-11)
B6: hz282-12 (antibody, V domains shown)
VH: QVQLQESGPGLVKPSETLSLTCTVAGFSLTSYNVYWIRQPPGKGLEWIGVIWNTGATRYNSALKSRVTISKDTSKSQVSLKLSSVTAADTAVYYCARDSAMPAIPFAYWGQGTLVTVSS
VL: DIQMTQSPSSLSASVGDRVTITCKSSQSLFGSVRQKNYLAWYQQKPGKAPKLLIYLASTRESGVPSRFSGSGSGTDFTLTISSLQPEDFATYYCQQYYDIPWTFGGGTKVEIK
notes: as for B1
B7: hz282-15 (antibody, V domains shown)
VH: QVQLQESGPGLVKPSETLSLTCTVSGFSLTSYNVYWIRQPPGKGLEWIGVIWNTGATRYNSALKSRVTISKDTSKSQVSLKLSSVTAADTAVYYCARDSAMPAIPFAYWGQGTLVTVSS
VL: DIQMTQSPSSLSASVGDRVTITCKSSQSLFGSVRQKNYLAWYQQKPGKSPKLLIYLASTRESGVPDRFSGSGSGTDFTLTISSLQPEDFAKYYCQQYYDIPWTFGGGTKVEIK
notes: as for B1

How the values were obtained:
[1] = molecular target: T1, human Claudin 18.2 (CLDN18.2) (human, UniProt P56856-2 1-261); assay: cell-based or functional assay
[2] = molecular target: T1, human Claudin 18.2 (CLDN18.2); assay: cell-based or functional assay; remark: listed apart in the source
[3] = molecular target: T1, human Claudin 18.2 (CLDN18.2); assay: cell-based or functional assay; remark: listed apart in the source
[4] = molecular target: T1, human Claudin 18.2 (CLDN18.2); assay: FACS on CHO-CLDN18.2 cells
[5] = molecular target: T2, CLDN18.2 endogenously expressed on SNU620 gastric cancer cells (UniProt P56856-2 1-261, limits assumed); assay: FACS Exp. 3, SNU620 cells
T2 construct: whole, on cells; also called SU620

[6] = molecular target: T1, human Claudin 18.2 (CLDN18.2); assay: FACS Exp. 1, MFI ratio CHO-18.2 over CHO-18.1
[7] = molecular target: T1, human Claudin 18.2 (CLDN18.2); assay: FACS Exp. 2, MFI ratio CHO-18.2 over CHO-18.1
[8] = molecular target: T1, human Claudin 18.2 (CLDN18.2); assay: FACS on CHO-CLDN18.2 cells; remark: listed apart in the source
[9] = molecular target: T1, human Claudin 18.2 (CLDN18.2); assay: FACS on CHO-CLDN18.2 cells; remark: listed apart in the source

Binder | % ADCC @ 6.67 nM, NCI-N87-CLDN18.2, FcR-TANK [1] | ADCC EC50, NCI-N87-CLDN18.2, FcR-TANK [1] | % specific cytotoxicity @ 6.67 nM, NUGC4-CLDN18.2, PBMC [2] | ADCC EC50, NUGC4-CLDN18.2, PBMC [2] | CDC EC50, human serum, CHO-CLDN18.2 [3] | EC50 [4] | MFI_SNU620 (@30 ug/ml) [5] | MFI_CHO-18.2/CHO-18.1 (@30 ug/ml) [6] | MFI_CHO-18.2/CHO-18.1 (@30 ug/ml) [7] | EC50 [8] | EC50 [9]
B1 | 13.5% | 0.4 nM | 26.7% | 13.3 nM | 1.48 nM | 3.5 nM | – | – | – | – | –
B2 | 10.8% | 0.41 nM | 26.2% | 11.3 nM | 1.28 nM | 4.22 nM | – | – | – | – | –
B3 | – | – | – | – | – | – | 1310 MFI | 808 | 1500 | – | –
B4 | – | – | – | – | – | – | 1240 MFI | 981 | 987 | – | –
B5 | – | – | – | – | – | 2.75 nM | 1340 MFI | 1190 | 2000 | 3.68 nM | 3.17 nM
B6 | – | – | – | – | – | – | 1220 MFI | 1230 | 1940 | – | –
B7 | – | – | – | – | – | – | 1230 MFI | 1380 | 2020 | – | –
